US20220281980A1 (Bristol-Myers Squibb, published 2022)

T1: recombinant soluble human MICA*008 antigen (human, UniProt Q29983 24-307)
T1 construct: also called huIMICA-his allele *008; recombinant soluble MICA (allele 8)
T1 chain: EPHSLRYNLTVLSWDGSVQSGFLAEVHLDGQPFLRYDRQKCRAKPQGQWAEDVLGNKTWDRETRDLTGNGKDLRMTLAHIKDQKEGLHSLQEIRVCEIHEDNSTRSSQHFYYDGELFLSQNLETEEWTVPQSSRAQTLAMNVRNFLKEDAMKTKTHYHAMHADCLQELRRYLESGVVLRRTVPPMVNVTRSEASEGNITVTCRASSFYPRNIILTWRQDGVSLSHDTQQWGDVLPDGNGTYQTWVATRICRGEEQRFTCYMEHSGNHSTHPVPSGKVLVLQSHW

T2: human MICA*002 expressed on CHO cells (human, UniProt Q29983 24-382)
T2 construct: also called MICA allele 002
T2 chain: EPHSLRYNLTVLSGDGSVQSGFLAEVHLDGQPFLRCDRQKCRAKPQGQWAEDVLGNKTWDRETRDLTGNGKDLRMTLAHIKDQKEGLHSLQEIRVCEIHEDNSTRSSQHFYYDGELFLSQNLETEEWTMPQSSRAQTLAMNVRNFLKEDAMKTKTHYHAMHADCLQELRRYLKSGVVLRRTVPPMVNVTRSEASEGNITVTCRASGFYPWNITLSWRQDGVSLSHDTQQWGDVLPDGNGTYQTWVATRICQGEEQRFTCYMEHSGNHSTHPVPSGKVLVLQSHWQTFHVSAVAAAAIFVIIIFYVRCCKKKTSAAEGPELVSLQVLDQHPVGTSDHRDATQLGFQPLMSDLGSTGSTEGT

T3: human MICA*010 expressed on CHO cells (human, UniProt Q29983 24-383)
T3 construct: also called MICA allele 010
T3 chain: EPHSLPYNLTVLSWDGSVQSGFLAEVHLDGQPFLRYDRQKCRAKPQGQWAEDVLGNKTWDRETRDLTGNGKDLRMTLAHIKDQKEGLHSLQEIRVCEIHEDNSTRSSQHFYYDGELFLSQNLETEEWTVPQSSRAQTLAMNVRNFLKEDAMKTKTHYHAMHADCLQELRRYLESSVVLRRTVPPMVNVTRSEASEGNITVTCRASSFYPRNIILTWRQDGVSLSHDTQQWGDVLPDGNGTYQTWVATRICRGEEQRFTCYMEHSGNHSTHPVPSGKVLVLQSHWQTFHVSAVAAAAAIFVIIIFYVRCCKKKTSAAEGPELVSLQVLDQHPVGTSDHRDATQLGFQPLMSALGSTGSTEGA

T4: human MICA*009 expressed on CHO cells (human, UniProt Q29983 24-382)
T4 construct: also called MICA allele 009
T4 chain: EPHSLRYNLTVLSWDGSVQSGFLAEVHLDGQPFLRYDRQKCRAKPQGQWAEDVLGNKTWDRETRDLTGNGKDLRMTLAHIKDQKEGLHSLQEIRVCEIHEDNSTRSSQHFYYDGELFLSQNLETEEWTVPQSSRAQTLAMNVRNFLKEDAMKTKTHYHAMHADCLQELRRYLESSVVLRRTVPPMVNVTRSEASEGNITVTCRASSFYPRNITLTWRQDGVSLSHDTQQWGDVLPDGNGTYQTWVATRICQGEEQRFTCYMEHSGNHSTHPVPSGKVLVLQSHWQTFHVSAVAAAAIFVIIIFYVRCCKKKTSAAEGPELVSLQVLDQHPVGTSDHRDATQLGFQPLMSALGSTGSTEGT

T5: human MICA*008 expressed on CHO cells (human, UniProt Q29983 24-331)
T5 construct: also called MICA allele 008
T5 chain: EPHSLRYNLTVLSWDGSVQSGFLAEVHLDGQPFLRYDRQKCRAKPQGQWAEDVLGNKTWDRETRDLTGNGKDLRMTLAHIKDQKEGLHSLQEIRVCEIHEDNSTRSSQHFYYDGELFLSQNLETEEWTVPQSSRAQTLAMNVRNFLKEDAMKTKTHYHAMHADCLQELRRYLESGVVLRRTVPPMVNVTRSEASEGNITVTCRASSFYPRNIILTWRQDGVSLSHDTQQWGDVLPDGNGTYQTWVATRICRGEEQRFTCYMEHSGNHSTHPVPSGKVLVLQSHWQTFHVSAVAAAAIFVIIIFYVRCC

T6: human MICB expressed on transduced cells (human, UniProt Q29980 23-382)
T6 construct: also called MICB*005
T6 chain: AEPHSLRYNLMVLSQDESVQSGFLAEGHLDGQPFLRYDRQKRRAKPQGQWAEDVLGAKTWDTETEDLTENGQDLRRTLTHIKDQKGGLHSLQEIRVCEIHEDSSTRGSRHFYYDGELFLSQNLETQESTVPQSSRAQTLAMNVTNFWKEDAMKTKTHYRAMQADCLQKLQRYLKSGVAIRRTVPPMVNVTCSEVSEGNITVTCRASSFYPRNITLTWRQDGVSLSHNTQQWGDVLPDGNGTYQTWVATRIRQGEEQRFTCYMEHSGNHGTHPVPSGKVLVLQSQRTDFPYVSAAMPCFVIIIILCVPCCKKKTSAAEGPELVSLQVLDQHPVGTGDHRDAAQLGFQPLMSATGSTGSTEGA


Columns and labels:
[1] = molecular target: T1, recombinant soluble human MICA*008 …; test: BLI (Octet) sandwich binning on soluble MICA allele 8, row antibody captured; competitor (second antibody): MICA.39
Description: The binning experiments were performed on an Octet HTX instrument at 25° C. in HEPES buffered saline (10 mM HEPES pH 7.4, 150 mM NaCl, 0.05% v/v surfactant P20, and 1 mg/mL BSA). Anti-MICA/B antibodies and NKG2D-mFc were captured on anti-Fc tips and remaining capture sites were blocked with an excess of negative control IgG. Recombinant soluble MICA (allele 8) was bound and subsequent binding (“sandwiching”) of anti-MICA/B antibodies was tested.

[2] = molecular target: T2, human MICA*002 expressed on CHO cells; test: flow cytometry, transfected CHO cells
[3] = molecular target: T7, cynomolgus monkey MICA/B clone #4 expressed on CHO cells (cynomolgus monkey); test: flow cytometry, transfected CHO cells
T7 construct: whole, on cells; also called cyno#4; CHO-cyno MICA clone #4

[4] = molecular target: T3, human MICA*010 expressed on CHO cells; test: flow cytometry, transfected CHO cells
[5] = molecular target: T8, cynomolgus monkey MICA/B clone #6 expressed on CHO cells (cynomolgus monkey); test: flow cytometry, transfected CHO cells
T8 construct: whole, on cells; also called cyno#6; CHO-cyno MICA clone #6

[6] = molecular target: T4, human MICA*009 expressed on CHO cells; test: flow cytometry, transfected CHO cells
[7] = molecular target: T5, human MICA*008 expressed on CHO cells; test: flow cytometry, transfected CHO cells
[8] = molecular target: T6, human MICB expressed on transduced cells; test: flow cytometry, transfected CHO cells

Binder	simultaneous binding (0 = no, 1 = yes) [1]	EC50 [2]	EC50 [3]	EC50 [4]	EC50 [5]	EC50 [6]	EC50 [7]	EC50 [8]
19G6 (antibody, V domains shown, Hybridoma antibody from human IgG transgenic mice, parent of MICA.36; also called 19G6 mAb; hybridoma 19G6) VH: QVQLVESGGGVVQPGRSLRLSCAASGFTFSNYAMHWVRQAPGEGLEWVALIWYDGSNKFYGDSVKGRFTISRDNSKNTLYLQMNSLSAEDTAVYYCAREGSGHYWGQGTLVTVSS VL: AIQLTQSPSSLSASVGDRVTITCRASQGISSALAWYQQKPGKVPKSLIYDASSLESGVPSRFSGSGSGTDFTLTISSLQPEDFATYYCQQFNSYPITFGQGTRLEIK	–	152 nM	1.08 nM	18.5 nM	22 nM	8.21 nM	9.23 nM	1.83 nM
24G11 (antibody, V domains shown, also called MICA.54; 24G11 (MICA.54)) VH: EVQLVQSGAEVKKPGESLKISCKGSGYSFTNYWIGWVRQMPGKGLEWLGIIHPGDSYTRYSPSFQGQVTISADKSISTAYLQWSSLKASDTAIYYCAREGIAATPFDYWGQGTLVTVSS VL: EIVLTQSPATLSLSPGERATLSCRASQSVSSYLAWFQQKPGQAPRLLIYDASNRATGIPARFSGSGSGTDFTLTISSLEPEDFAVYYCQQRSNWPPTFGQGTKVEIK	1	1060 nM	394 nM	722 nM	331 nM	497 nM	248 nM	262 nM

Continued, values first:

simultaneous binding (0 = no, 1 = yes) [1]	EC50 [2]	EC50 [3]	EC50 [4]	EC50 [5]	EC50 [6]	EC50 [7]	EC50 [8]	Binder
1	–	–	–	–	–	–	–	MICA.36 (antibody, V domains shown, it says that the name implies no specific constant region; Radioiodinated in the Scatchard assay; also called MICA.36 antibody) VH: QVQLVESGGGVVQPGRSLRLSCAASGFTFSNYAMHWVRQAPGEGLEWVALIWYDGSNKFYGDSVKGRFTISRDNSKNTLYLQMNSLSAEDTAVYYCAREGSGHYWGQGTLVTVSS VL: AIQLTQSPSSLSASVGDRVTITCRASQGISSALAWYQQKPGKVPKSLIYDASSLESGVPSRFSGSGSGTDFTLTISSLQPEDFATYYCQQFNSYPITFGQGTRLEIK
0	5.37 nM	1.97 nM	6.91 nM	4.01 nM	1.56 nM	2.14 nM	6 nM	MICA.2 (antibody, human IgG1, kappa, V domains shown, 3F5 variable regions on human IgG1f and human kappa constant regions, made in CHO-S cells; also called 3F5; recombinant antibody of 3F5) VH: EVQLVESGGGLVQPGGSLRLSCAASGFTFSTYSMNWVRQAPGKGLEWVSYISYRSRTIYYADSVKGRFTISRDNARNSLYLQMNSLRDEDTAVYYCARWGYGSGGFDYWGQGTLVTVSS VL: not shown
–	264 nM	23.4 nM	80 nM	232 nM	10.2 nM	10 nM	9.81 nM	71C2 (antibody, V domains shown, Hybridoma antibody) VH: EVQLVESGGGLVQPGRSLRLSCAASGFTFNNYAMHWVRQAPGKGLEWVSGITWNSDSIGYADSVKGRFTISRDNAKNSLYLQMNSLRAEDTALYYCAKDSVLLWFGGMDVWGQGTTVTVSS VL: not shown
